Measurements: US20250145714A1 (GENUV, published 2025)
One block for each molecule: values may come before it.

Legend:
[1] = molecular target: IL-2Rα-His (Acrobiosystems) (UniProt P01589); test: ELISA on plate-coated IL-2Rα-His, OD450 against antibody concentration (M)
[2] = molecular target: IL-2Rβγ-His (Acrobiosystems) (UniProt P14784); test: ELISA on plate-coated IL-2Rβγ-His, OD450 against antibody concentration (M)
[3] = molecular target: T1, Human PD-1 (Acrobiosystems, Cat #PD1-H5221) (human, UniProt Q15116 25-167); test: SPR Biacore 8K, human PD-1 amine-coupled on CM5, 1:1 model, pH 6.0
T1 construct: Bought protein, immobilised on a CM5 chip; also called hPD-1
T1 sequence (Q15116 25-167 limits assumed): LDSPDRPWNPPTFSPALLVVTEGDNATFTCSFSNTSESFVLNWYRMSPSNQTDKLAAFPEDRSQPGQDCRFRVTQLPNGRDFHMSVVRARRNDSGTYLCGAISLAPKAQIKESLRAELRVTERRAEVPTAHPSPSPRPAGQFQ
Method: (§1) Human PD-1 (Acrobiosystems, Cat #PD1-H5221) at a concentration of 1 μg/ml was immobilized on a CM5 chip (Cytiva) using an amine coupling kit (Cytiva) according to the manufacturer's instructions. […] After each experiment in each concentration cycle, the chip was regenerated with glycine at pH 1.5. At this time, the running buffer used was a pH 7.4 or pH 6.0 HBS-EP+ buffer (0.1 M HEPES, 1.5 M NaCl, 0.03 M EDTA and 0.5% v/v Surfactant P20), and the experimental proteins were diluted in the running buffer.
(§2) The analysis was performed using the 1:1 binding model in Biacore evaluation software version 3.0, and the results of the kinetic constants (ka and kd) and affinity (KD) values are shown in Table 3 below.

[4] = molecular target: T1, Human PD-1 (Acrobiosystems, Cat …); test: SPR Biacore 8K, human PD-1 amine-coupled on CM5, 1:1 model, pH 7.4
Method: as §1, §2

IL-2Rβγ-His (Acrobiosystems), sequence (P14784 27-239 limits assumed, chain 1 of 2): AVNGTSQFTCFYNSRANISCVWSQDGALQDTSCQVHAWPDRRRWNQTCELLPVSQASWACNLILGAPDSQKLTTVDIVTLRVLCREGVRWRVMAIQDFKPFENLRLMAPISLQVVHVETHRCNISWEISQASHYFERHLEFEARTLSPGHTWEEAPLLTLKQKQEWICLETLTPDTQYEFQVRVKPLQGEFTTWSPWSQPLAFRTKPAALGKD
IL-2Rβγ-His (Acrobiosystems), sequence (P31785 23-262 limits assumed, chain 2 of 2, further chain): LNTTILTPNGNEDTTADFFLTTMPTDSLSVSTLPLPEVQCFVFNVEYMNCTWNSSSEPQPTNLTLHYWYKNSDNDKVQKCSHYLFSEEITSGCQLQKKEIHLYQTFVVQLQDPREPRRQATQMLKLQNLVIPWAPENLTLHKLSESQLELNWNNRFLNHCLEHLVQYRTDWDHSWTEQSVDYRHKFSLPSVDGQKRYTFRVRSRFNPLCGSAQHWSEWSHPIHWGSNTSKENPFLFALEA
IL-2Rα-His (Acrobiosystems), sequence (P01589 22-213): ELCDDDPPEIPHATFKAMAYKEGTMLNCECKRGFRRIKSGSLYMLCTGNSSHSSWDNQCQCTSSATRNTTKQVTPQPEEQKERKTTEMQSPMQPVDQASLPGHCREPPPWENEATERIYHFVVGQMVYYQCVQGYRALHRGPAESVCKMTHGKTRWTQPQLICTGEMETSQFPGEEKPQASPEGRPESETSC

- EC50 [1]: 0.325 nM
- EC50 [2]: 7.99 nM
Molecule: Fc-IL2 (control antibody; prepared in-house) (Fc fusion)

- Kd [3]: 0.0481 nM
- koff [3]: 1.38e-05 s⁻¹
- kon [3]: 286000 M⁻¹ s⁻¹
- Kd [4]: 0.237 nM
- koff [4]: 3.51e-05 s⁻¹
- kon [4]: 148000 M⁻¹ s⁻¹
B1: 1G1-h70 (antibody, V domains shown)
VH: QVQLVQSGAEVKKPGASVKVSCKASGYTFTGYWMHWVRQAPGQGLEWIGMIHPNSDTTTYNEKFKNRVTMTRDTSISTAYMELSRLRSDDTAVYYCAGTDQAAWFAFWGQGTTVTVSS
VL: DIVMTQTPLSLSVTPGQPASISCRSSQNIVHSQGDTYLEWYLQKPGQSPQLLIYKVSKRFSGVPDRFSGSGSGTDFTLKISRVEAEDVGVYYCFQGSHVPWTFGGGTKVEIK
notes: also called humanized anti-PD-1 antibody 1G1-h70; anti-PD-1 antibody
